The results in this text go back to the supplement of paper PMC5998384.

Data set [1] relates to HeLa Kyoto. The data set is described as follows: solubility in G1/S (NP-40 vs SDS abundance) (log2 ratio); higher = more soluble. To be noted: cell cycle stage: G1/S.
Data set [2] relates to HeLa Kyoto. Put plainly: melting temperature (median over replicates), in situ; higher = more thermally stable.
The test system of data set [3] is HeLa Kyoto. The data set is described as follows: solubility change mitosis vs G1/S (difference of NP-40 vs SDS log2 ratios) (log2 ratio difference); higher = more soluble in mitosis.
For data set [4], the system named is HeLa Kyoto. Put plainly: thermal stability score vs G1/S (z-score of summed log2 fold changes over temperatures); higher = more thermally stable than in G1/S.
Where [5] appears, read: cell cycle stage: early G1 (4.5 h after nocodazole release).
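Wherever melting temperature (median over replicates), in situ is given: HeLa Kyoto cells synchronized by double thymidine or nocodazole block, proteins quantified by TMT10plex mass spectrometry, three independent biological replicates.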
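Wherever solubility change mitosis vs G1/S (difference of NP-40 vs SDS log2 ratios) is given: synchronized HeLa Kyoto cells (double thymidine block for G1/S, nocodazole release for mitosis), protein amounts in NP-40 versus SDS lysates quantified by mass spectrometry, three biological replicates.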
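Wherever solubility in G1/S (NP-40 vs SDS abundance) is given: HeLa Kyoto cells arrested at G1/S by double thymidine block, proteins quantified by TMT10plex mass spectrometry in mild NP-40 versus SDS extracts, three biological replicates.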
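Wherever thermal stability score vs G1/S (z-score of summed log2 fold changes over temperatures) is given: synchronized HeLa Kyoto cells, proteins quantified by TMT10plex mass spectrometry, three biological replicates, mitosis taken 0.5 h after nocodazole release, G1/S directly after double thymidine block.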

As to “MRLSSLLALLRPALPLILGLSLGCSLSLLRVSWIQGEGEDPCVEAVGERGGPQNPDSRARLDQSDEDFKPRIVPYYRDPNKPYKKVLRTRYIQTELGSRERLLVAVLTSRATLSTLAVAVNRTVAHHFPRLLYFTGQRGARAPAGMQVVSHGDERPAWLMSETLRHLHTHFGADYDWFFIMQDDTYVQAPRLAALAGHLSINQDLYLGRAEEFIGAGEQARYCHGGFGYLLSRSLLLRLRPHLDGCRGDILSARPDEWLGRCLIDSLGVGCVSQHQGQQYRSFELAKNRDPEKEGSSAFLSAFAVHPVSEGTLMYRLHKRFSALELERAYSEIEQLQAQIRNLTVLTPEGEAGLSWPVGLPAPFTPHSRFEVLGWDYFTEQHTFSCADGAPKCPLQGASRADVGDALETALEQLNRRYQPRLRFQKQRLLNGYRRFDPARGMEYTLDLLLECVTQRGHRRALARRVSLLRPLSRVEILPMPYVTEATRVQLVLPLLVAEAAAAPAFLEAFAANVLEPREHALLTLLLVYGPREGGRGAPDPFLGVKAAAAELERRYPGTRLAWLAVRAEAPSQVRLMDVVSKKHPVDTLFFLTTVWTRPGPEVLNRCRMNAISGWQAFFPVHFQEFNPALSPQRSPPGPPGAGPDPPSPPGADPSRGAPIGGRFDRQASAEGCFYNADYLAARARLAGELAGQEEEEALEGLEVMDVFLRFSGLHLFRAVEPGLVQKFSLRDCSPRLSEELYHRCRLSNLEGLGGRAQLAMALFEQEQANST [CHPF2]”, the “solubility in G1/S (log2)” value in the data set with HeLa Kyoto [1] is -0.00882. Further, the melting temperature in the data set on HeLa Kyoto [2] (cell cycle stage: G1/S) was 53.4 °C; with HeLa Kyoto [2] (cell cycle stage: mitosis), 53 °C. Moreover, in the data set with HeLa Kyoto [3], the “solubility change mitosis (log2)” value is -0.00799. Moreover, the results for the thermal stability score with HeLa Kyoto [4] (setting [5]) and with HeLa Kyoto [4] (cell cycle stage: mitosis) were -0.504 and -0.497, respectively.
“MRNLKLFRTLEFRDIQGPGNPQCFSLRTEQGTVLIGSEHGLIEVDPVSREVKNEVSLVAEGFLPEDGSGRIVGVQDLLDQESVCVATASGDVILCSLSTQQLECVGSVASGISVMSWSPDQELVLLATGQQTLIMMTKDFEPILEQQIHQDDFGESKFITVGWGRKETQFHGSEGRQAAFQMQMHESALPWDDHRPQVTWRGDGQFFAVSVVCPETGARKVRVWNREFALQSTSEPVAGLGPALAWKPSGSLIASTQDKPNQQDIVFFEKNGLLHGHFTLPFLKDEVKVNDLLWNADSSVLAVWLEDLQREESSIPKTCVQLWTVGNYHWYLKQSLSFSTCGKSKIVSLMWDPVTPYRLHVLCQGWHYLAYDWHWTTDRSVGDNSSDLSNVAVIDGNRVLVTVFRQTVVPPPMCTYQLLFPHPVNQVTFLAHPQKSNDLAVLDASNQISVYKCGDCPSADPTVKLGAVGGSGFKVCLRTPHLEKRYKIQFENNEDQDVNPLKLGLLTWIEEDVFLAVSHSEFSPRSVIHHLTAASSEMDEEHGQLNVSSSAAVDGVIISLCCNSKTKSVVLQLADGQIFKYLWESPSLAIKPWKNSGGFPVRFPYPCTQTELAMIGEEECVLGLTDRCRFFINDIEVASNITSFAVYDEFLLLTTHSHTCQCFCLRDASFKTLQAGLSSNHVSHGEVLRKVERGSRIVTVVPQDTKLVLQMPRGNLEVVHHRALVLAQIRKWLDKLMFKEAFECMRKLRINLNLIYDHNPKVFLGNVETFIKQIDSVNHINLFFTELKEEDVTKTMYPAPVTSSVYLSRDPDGNKIDLVCDAMRAVMESINPHKYCLSILTSHVKKTTPELEIVLQKVHELQGNAPSDPDAVSAEEALKYLLHLVDVNELYDHSLGTYDFDLVLMVAEKSQKDPKEYLPFLNTLKKMETNYQRFTIDKYLKRYEKAIGHLSKCGPEYFPECLNLIKDKNLYNEALKLYSPSSQQYQDISIAYGEHLMQEHMYEPAGLMFARCGAHEKALSAFLTCGNWKQALCVAAQLNFTKDQLVGLGRTLAGKLVEQRKHIDAAMVLEECAQDYEEAVLLLLEGAAWEEALRLVYKYNRLDIIETNVKPSILEAQKNYMAFLDSQTATFSRHKKRLLVVRELKEQAQQAGLDDEVPHGQESDLFSETSSVVSGSEMSGKYSHSNSRISARSSKNRRKAERKKHSLKEGSPLEDLALLEALSEVVQNTENLKDEVYHILKVLFLFEFDEQGRELQKAFEDTLQLMERSLPEIWTLTYQQNSATPVLGPNSTANSIMASYQQQKTSVPVLDAELFIPPKINRRTQWKLSLLD [IKBKAP]”: the “solubility in G1/S (log2)” value with HeLa Kyoto [1] was -0.206. For the same sequence, the melting temperature came out at 50.2 °C in the data set with HeLa Kyoto [2] (cell cycle stage: G1/S) and 50 °C in the data set on HeLa Kyoto [2] (cell cycle stage: mitosis). Moreover, in the data set with HeLa Kyoto [3], the “solubility change mitosis (log2)” value was -0.15. Also, the values for the thermal stability score in the data set with HeLa Kyoto [4] (setting [5]) and in the data set with HeLa Kyoto [4] (cell cycle stage: mitosis) were 0.962 and -0.0976, respectively.
With “MRPMRIFVNDDRHVMAKHSSVYPTQEELEAVQNMVSHTERALKAVSDWIDEQEKGSSEQAESDNMDVPPEDDSKEGAGEQKTEHMTRTLRGVMRVGLVAKGLLLKGDLDLELVLLCKEKPTTALLDKVADNLAIQLAAVTEDKYEILQSVDDAAIVIKNTKEPPLSLTIHLTSPVVREEMEKVLAGETLSVNDPPDVLDRQKCLAALASLRHAKWFQARANGLKSCVIVIRVLRDLCTRVPTWGPLRGWPLELLCEKSIGTANRPMGAGEALRRVLECLASGIVMPDGSGIYDPCEKEATDAIGHLDRQQREDITQSAQHALRLAAFGQLHKVLGMDPLPSKMPKKPKNENPVDYTVQIPPSTTYAITPMKRPMEEDGEEKSPSKKKKKIQKKEEKAEPPQAMNALMRLNQLKPGLQYKLVSQTGPVHAPIFTMSVEVDGNSFEASGPSKKTAKLHVAVKVLQDMGLPTGAEGRDSSKGEDSAEETEAKPAVVAPAPVVEAVSTPSAAFPSDATAEQGPILTKHGKNPVMELNEKRRGLKYELISETGGSHDKRFVMEVEVDGQKFQGAGSNKKVAKAYAALAALEKLFPDTPLALDANKKKRAPVPVRGGPKFAAKPHNPGFGMGGPMHNEVPPPPNLRGRGRGGSIRGRGRGRGFGGANHGGYMNAGAGYGSYGYGGNSATAGYSQFYSNGGHSGNASGGGGGGGGGSSGYGSYYQGDNYNSPVPPKHAGKKQPHGGQQKPSYGSGYQSHQGQQQSYNQSPYSNYGPPQGKQKGYNHGQGSYSYSNSYNSPGGGGGSDYNYESKFNYSGSGGRSGGNSYGSGGASYNPGSHGGYGGGSGGGSSYQGKQGGYSQSNYNSPGSGQNYSGPPSSYQSSQGGYGRNADHSMNYQYR [ILF3]”, the “solubility in G1/S (log2)” value in the data set on HeLa Kyoto [1] is -0.123. In addition, the melting temperature was found to be 54.1 °C with HeLa Kyoto [2] (cell cycle stage: G1/S) and 53.9 °C in the data set on HeLa Kyoto [2] (cell cycle stage: mitosis). For the same sequence, the “solubility change mitosis (log2)” value in the data set on HeLa Kyoto [3] is 0.113. Also, the values for the thermal stability score in the data set on HeLa Kyoto [4] (setting [5]) and in the data set with HeLa Kyoto [4] (cell cycle stage: mitosis) were -0.903 and -1.89, respectively.
